Laboratory results as given in publication PMC3407951 (EMBO Molecular Medicine, 2012).

How the values were obtained:
human NEP = human NEP (Homo sapiens, UniProt P08473); settings: literature statement; ref Betts et al, [2008]; cited from earlier work
ADAM10 = assay: 0.4 µg; settings: human, 37°C, up to 24 h

human NEP, sequence (P08473 whole entry): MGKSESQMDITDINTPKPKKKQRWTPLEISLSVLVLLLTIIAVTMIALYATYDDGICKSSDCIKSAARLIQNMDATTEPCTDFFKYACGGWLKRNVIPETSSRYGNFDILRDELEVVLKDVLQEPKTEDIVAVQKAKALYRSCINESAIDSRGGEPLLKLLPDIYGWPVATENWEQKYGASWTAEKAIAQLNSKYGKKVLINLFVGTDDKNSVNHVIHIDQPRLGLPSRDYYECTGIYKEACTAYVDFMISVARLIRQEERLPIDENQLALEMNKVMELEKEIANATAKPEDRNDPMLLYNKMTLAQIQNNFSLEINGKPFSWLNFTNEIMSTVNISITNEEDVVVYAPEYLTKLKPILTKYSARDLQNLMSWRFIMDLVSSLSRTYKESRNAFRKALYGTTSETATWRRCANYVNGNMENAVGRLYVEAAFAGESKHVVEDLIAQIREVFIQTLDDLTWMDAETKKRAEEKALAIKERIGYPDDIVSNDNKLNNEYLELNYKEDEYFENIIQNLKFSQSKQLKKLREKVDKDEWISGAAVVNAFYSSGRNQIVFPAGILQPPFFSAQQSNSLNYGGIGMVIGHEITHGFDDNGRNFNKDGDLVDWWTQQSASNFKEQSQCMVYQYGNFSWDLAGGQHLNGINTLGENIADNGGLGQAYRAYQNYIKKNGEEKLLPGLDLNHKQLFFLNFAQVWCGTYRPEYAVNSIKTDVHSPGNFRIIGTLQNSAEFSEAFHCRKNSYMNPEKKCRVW

Substance | NEP-mediated degradation (human NEP) | fragment found (ADAM10)
Aβ40 A21G: Aβ40 peptide with the Flemish mutation A21G (literature) | attenuated | –
EVHHQNLVFFAEDVGSNK | – | Aβ11–16 K16N, minor, 5 h
